Test results from US20180086849A1 (Hoffmann-La Roche, published 2018).

Columns and labels:
[1] = biological target: human MCSP (Melanoma-associated Chondroitin Sulfate Proteoglycan) on cells (human, UniProt Q6UVK1 30-2322); assay: cell-based or functional assay
Her2 on KPL-4 cells = Her2 on KPL-4 cells (human (human cell line KPL-4), UniProt P04626 23-1255); assay: cell-based or functional assay
[2] = biological target: T1, Human EGFR (immobilized on CM5 chip) (human, UniProt P00533 25-645, limits assumed); assay: SPR (Biacore T100): construct captured at 200 nM on immobilised human EGFR, then CD3 fusion at 2000 nM
T1 construct: also called tumor antigen

Sequence of human MCSP (Melanoma-associated Chondroitin Sulfate Proteoglycan) on cells (Q6UVK1 30-2322): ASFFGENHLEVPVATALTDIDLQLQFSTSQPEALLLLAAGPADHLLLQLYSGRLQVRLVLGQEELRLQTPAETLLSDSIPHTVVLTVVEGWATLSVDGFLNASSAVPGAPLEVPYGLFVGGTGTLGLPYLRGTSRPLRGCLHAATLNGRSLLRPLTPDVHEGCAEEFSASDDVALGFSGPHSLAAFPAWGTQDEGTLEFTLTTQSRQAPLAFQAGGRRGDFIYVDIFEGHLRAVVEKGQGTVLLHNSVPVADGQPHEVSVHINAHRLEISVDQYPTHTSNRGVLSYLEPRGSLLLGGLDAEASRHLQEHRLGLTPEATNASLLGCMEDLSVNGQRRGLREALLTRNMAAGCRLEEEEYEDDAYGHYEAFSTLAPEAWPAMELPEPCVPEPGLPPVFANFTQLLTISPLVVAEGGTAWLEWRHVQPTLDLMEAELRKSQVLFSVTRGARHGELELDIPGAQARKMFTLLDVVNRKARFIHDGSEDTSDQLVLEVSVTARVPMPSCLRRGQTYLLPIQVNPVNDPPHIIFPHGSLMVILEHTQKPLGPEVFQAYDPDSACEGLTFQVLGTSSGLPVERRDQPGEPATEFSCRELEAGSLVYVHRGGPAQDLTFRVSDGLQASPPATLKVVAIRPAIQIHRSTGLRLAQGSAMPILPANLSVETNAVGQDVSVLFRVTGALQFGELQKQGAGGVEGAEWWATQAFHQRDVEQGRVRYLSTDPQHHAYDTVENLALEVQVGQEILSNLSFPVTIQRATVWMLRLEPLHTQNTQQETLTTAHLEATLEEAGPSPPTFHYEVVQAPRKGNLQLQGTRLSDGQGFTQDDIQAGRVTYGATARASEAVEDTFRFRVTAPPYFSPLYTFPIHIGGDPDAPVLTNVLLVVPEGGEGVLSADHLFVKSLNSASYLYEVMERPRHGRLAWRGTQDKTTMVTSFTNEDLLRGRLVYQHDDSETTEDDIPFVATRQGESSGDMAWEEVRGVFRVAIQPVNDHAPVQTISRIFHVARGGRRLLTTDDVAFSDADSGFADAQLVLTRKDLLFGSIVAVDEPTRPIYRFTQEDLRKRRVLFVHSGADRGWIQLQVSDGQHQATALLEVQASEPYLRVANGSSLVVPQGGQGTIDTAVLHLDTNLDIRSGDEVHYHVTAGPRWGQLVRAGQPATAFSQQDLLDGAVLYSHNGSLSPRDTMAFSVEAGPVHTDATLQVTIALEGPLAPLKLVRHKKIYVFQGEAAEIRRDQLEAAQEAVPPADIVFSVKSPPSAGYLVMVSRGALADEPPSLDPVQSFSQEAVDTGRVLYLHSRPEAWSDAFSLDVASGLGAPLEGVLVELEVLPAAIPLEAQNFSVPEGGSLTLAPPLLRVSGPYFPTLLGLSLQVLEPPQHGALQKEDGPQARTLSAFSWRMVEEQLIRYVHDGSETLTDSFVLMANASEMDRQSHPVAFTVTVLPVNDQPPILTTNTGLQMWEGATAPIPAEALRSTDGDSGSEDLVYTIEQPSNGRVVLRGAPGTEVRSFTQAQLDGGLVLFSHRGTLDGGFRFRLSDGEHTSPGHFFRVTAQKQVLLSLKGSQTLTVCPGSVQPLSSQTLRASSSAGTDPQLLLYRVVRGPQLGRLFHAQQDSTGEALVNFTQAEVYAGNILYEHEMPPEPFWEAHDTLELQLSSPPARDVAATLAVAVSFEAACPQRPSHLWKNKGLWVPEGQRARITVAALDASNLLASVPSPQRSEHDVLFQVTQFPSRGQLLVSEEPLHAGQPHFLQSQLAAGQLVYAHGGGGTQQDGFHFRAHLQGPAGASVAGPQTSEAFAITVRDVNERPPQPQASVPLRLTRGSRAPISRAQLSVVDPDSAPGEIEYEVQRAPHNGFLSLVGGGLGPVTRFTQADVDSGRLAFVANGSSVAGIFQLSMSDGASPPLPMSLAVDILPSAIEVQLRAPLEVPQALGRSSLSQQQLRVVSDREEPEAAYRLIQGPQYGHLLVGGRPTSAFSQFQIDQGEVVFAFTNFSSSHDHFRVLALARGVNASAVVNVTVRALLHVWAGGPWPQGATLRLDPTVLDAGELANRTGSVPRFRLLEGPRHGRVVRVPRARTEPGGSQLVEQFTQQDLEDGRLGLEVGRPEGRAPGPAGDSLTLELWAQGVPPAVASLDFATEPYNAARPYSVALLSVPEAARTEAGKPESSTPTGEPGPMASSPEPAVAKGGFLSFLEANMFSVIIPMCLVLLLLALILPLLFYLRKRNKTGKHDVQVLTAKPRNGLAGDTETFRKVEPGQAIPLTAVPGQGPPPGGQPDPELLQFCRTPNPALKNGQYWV

| Binder | binding result [2] | other results |
| --- | --- | --- |
| aVH TCB (Crossfab fragment with a CD3 binding moiety and two aVH moieties binding MCSP, P329G LALA) (bispecific antibody) light: SASYRKR heavy 1: HQYYTYPLFT heavy 2: QAVVTQEPSLTVSPGGTVTLTCGSSTGAVTTSNYANWVQEKPGQAFRGLIGGTNKRAPGTPARFSGSLLGGKAALTLSGAQPEDEAEYYCALWYSNLWVFGGGTKLTVLSSASTKGPSVFPLAPSSKSTSGGTAALGCLVKDYFPEPVTVSWNSGALTSGVHTFPAVLQSSGLYSLSSVVTVPSSSLGTQTYICNVNHKPSNTKVDKKVEPKSC |  | EC50 [pM] 24 h of T-cell mediated killing of MV-3 cells [1]: 9120 pM; EC50 [pM] 48 h of T-cell mediated killing of MV-3 cells [1]: 8970 pM |
| Darpin TCB (Crossfab fragment with a CD3 binding moiety and two Darpin moieties binding HER2, P329G LALA) (bispecific antibody) light: EVQLVESGGGLVQPGGSLRLSCAASGFNIKDTYIGWVRRAPGKGTELVARIYPTNGYTRYADSVKGRFTISADTSKNTAYLQMNSLRAEDTAVYYCARTSWGGWLSGDYWGQGTLVTVSSDKTHTCPPCPAPEAAGGPSVFLFPPKPKDTLMISRTPEVTCVVVDVSHEDPEVKFNWYVDGVEVHNAKTKPREEQYNSTYRVVSVLTVLHQDWLNGKEYKCKVSNKALGAPIEKTISKAKGQPREPQVCTLPPSRDELTKNQVSLSCAVKGFYPSDIAVEWESNGQPENNYKTTPPVLDSDGSFFLVSKLTVDKSRWQQGNVFSCSVMHEALHNHYTQKSLSLSPGK heavy 1: not shown heavy 2: QAVVTQEPSLTVSPGGTVTLTCGSSTGAVTTSNYANWVQEKPGQAFRGLIGGTNKRAPGTPARFSGSLLGGKAALTLSGAQPEDEAEYYCALWYSNLWVFGGGTKLTVLSSASTKGPSVFPLAPSSKSTSGGTAALGCLVKDYFPEPVTVSWNSGALTSGVHTFPAVLQSSGLYSLSSVVTVPSSSLGTQTYICNVNHKPSNTKVDKKVEPKSC |  | EC50 [pM] 24 h of T-cell mediated killing of KPL-4 cells (Her2 on KPL-4 cells): 376 pM; EC50 [pM] 48 h of T-cell mediated killing of KPL-4 cells (Her2 on KPL-4 cells): 235 pM |
| 2+1 IgG scFab, P329G LALA (anti-EGFR/anti-huCD3) (bispecific antibody, also called 2+1 IgG scFab (EGFR)) chain 1: QVQLVQSGAEVKKPGSSVKVSCKASGFTFTDYKIHWVRQAPGQGLEWMGYFNPNSGYSTYAQKFQGRVTITADKSTSTAYMELSSLRSEDTAVYYCARLSPGGYYVMDAWGQGTTVTVSSASTKGPSVFPLAPSSKSTSGGTAALGCLVKDYFPEPVTVSWNSGALTSGVHTFPAVLQSSGLYSLSSVVTVPSSSLGTQTYICNVNHKPSNTKVDKKVEPKSCDKTHTCPPCPAPEAAGGPSVFLFPPKPKDTLMISRTPEVTCVVVDVSHEDPEVKFNWYVDGVEVHNAKTKPREEQYNSTYRVVSVLTVLHQDWLNGKEYKCKVSNKALGAPIEKTISKAKGQPREPQVCTLPPSRDELTKNQVSLSCAVKGFYPSDIAVEWESNGQPENNYKTTPPVLDSDGSFFLVSKLTVDKSRWQQGNVFSCSVMHEALHNHYTQKSLSLSPGK chain 2: DIQMTQSPSSLSASVGDRVTITCRASQGINNYLNWYQQKPGKAPKRLIYNTNNLQTGVPSRFSGSGSGTEFTLTISSLQPEDFATYYCLQHNSFPTFGQGTKLEIKRTVAAPSVFIFPPSDEQLKSGTASVVCLLNNFYPREAKVQWKVDNALQSGNSQESVTEQDSKDSTYSLSSTLTLSKADYEKHKVYACEVTHQGLSSPVTKSFNRGEC chain 3: not shown | binds |  |
| 1+1 IgG scFab, one armed (anti-EGFR/anti-huCD3) (bispecific antibody) chain 1: not shown chain 2: QVQLVQSGAEVKKPGSSVKVSCKASGFTFTDYKIHWVRQAPGQGLEWMGYFNPNSGYSTYAQKFQGRVTITADKSTSTAYMELSSLRSEDTAVYYCARLSPGGYYVMDAWGQGTTVTVSSASTKGPSVFPLAPSSKSTSGGTAALGCLVKDYFPEPVTVSWNSGALTSGVHTFPAVLQSSGLYSLSSVVTVPSSSLGTQTYICNVNHKPSNTKVDKKVEPKSCDKTHTCPPCPAPEAAGGPSVFLFPPKPKDTLMISRTPEVTCVVVDVSHEDPEVKFNWYVDGVEVHNAKTKPREEQYNSTYRVVSVLTVLHQDWLNGKEYKCKVSNKALGAPIEKTISKAKGQPREPQVCTLPPSRDELTKNQVSLSCAVKGFYPSDIAVEWESNGQPENNYKTTPPVLDSDGSFFLVSKLTVDKSRWQQGNVFSCSVMHEALHNHYTQKSLSLSPGK chain 3: DIQMTQSPSSLSASVGDRVTITCRASQGINNYLNWYQQKPGKAPKRLIYNTNNLQTGVPSRFSGSGSGTEFTLTISSLQPEDFATYYCLQHNSFPTFGQGTKLEIKRTVAAPSVFIFPPSDEQLKSGTASVVCLLNNFYPREAKVQWKVDNALQSGNSQESVTEQDSKDSTYSLSSTLTLSKADYEKHKVYACEVTHQGLSSPVTKSFNRGEC | binds |  |
| 1+1 IgG scFab, one armed inverted (anti-EGFR/anti-huCD3) (bispecific antibody) chain 1: not shown chain 2: not shown chain 3: EVQLVESGGGLVQPGGSLRLSCAASGYSFTGYTMNWVRQAPGKGLEWVALINPYKGVSTYNQKFKDRFTISVDKSKNTAYLQMNSLRAEDTAVYYCARSGYYGDSDWYFDVWGQGTLVTVSSASTKGPSVFPLAPSSKSTSGGTAALGCLVKDYFPEPVTVSWNSGALTSGVHTFPAVLQSSGLYSLSSVVTVPSSSLGTQTYICNVNHKPSNTKVDKKVEPKSCDKTHTCPPCPAPEAAGGPSVFLFPPKPKDTLMISRTPEVTCVVVDVSHEDPEVKFNWYVDGVEVHNAKTKPREEQYNSTYRVVSVLTVLHQDWLNGKEYKCKVSNKALGAPIEKTISKAKGQPREPQVCTLPPSRDELTKNQVSLSCAVKGFYPSDIAVEWESNGQPENNYKTTPPVLDSDGSFFLVSKLTVDKSRWQQGNVFSCSVMHEALHNHYTQKSLSLSPGK | binds |  |
| 1+1 IgG scFab (anti-EGFR/anti-huCD3) (bispecific antibody) chain 1: DIQMTQSPSSLSASVGDRVTITCRASQGINNYLNWYQQKPGKAPKRLIYNTNNLQTGVPSRFSGSGSGTEFTLTISSLQPEDFATYYCLQHNSFPTFGQGTKLEIKRTVAAPSVFIFPPSDEQLKSGTASVVCLLNNFYPREAKVQWKVDNALQSGNSQESVTEQDSKDSTYSLSSTLTLSKADYEKHKVYACEVTHQGLSSPVTKSFNRGEC chain 2: not shown chain 3: DKTHTCPPCPAPEAAGGPSVFLFPPKPKDTLMISRTPEVTCVVVDVSHEDPEVKFNWYVDGVEVHNAKTKPREEQYNSTYRVVSVLTVLHQDWLNGKEYKCKVSNKALGAPIEKTISKAKGQPREPQVCTLPPSRDELTKNQVSLSCAVKGFYPSDIAVEWESNGQPENNYKTTPPVLDSDGSFFLVSKLTVDKSRWQQGNVFSCSVMHEALHNHYTQKSLSLSPGK | binds |  |
